Experimental findings from patent US20020099172A1 are described below.

The experiment addresses Xwnt-8 (Xenopus) (UniProt P28026). Description: cell-based or functional assay.
Sequence of UniProt P28026 (P28026 23-358 limits assumed): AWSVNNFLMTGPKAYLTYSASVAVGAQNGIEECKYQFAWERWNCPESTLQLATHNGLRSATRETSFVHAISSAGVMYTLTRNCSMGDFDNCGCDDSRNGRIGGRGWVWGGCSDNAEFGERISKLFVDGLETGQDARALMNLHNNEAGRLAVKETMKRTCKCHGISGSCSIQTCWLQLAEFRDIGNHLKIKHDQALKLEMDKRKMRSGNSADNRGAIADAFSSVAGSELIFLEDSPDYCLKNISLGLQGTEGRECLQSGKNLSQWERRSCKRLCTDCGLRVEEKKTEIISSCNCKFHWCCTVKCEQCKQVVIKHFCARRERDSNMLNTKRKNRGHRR

Turning to “frzb-1 (Xenopus, expressed from injected mRNA)”, the embryos with secondary axes after injection of frzb-1 mRNA (animal blastomeres) and Xwnt-8 mRNA (vegetal-ventral blastomere); Xwnt-8 alone gave complete secondary axes in 67% of the embryos (n=53) came to 14%.
